Values of other authors in paper PMC7023894.

Target: Ezrin FERM (Homo sapiens) (UniProt P15311)
Chain of UniProt P15311 (P15311 1-299): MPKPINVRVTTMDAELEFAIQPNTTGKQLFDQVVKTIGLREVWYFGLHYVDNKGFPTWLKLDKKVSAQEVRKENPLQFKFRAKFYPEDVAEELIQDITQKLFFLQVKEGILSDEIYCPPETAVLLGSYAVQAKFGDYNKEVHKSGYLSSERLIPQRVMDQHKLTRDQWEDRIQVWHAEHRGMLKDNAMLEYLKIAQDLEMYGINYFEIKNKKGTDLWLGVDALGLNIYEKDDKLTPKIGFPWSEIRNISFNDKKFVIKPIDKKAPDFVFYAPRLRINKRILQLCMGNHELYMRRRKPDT

Kd: 73.3 nM
Substance: Transgelin-2 CLR region (from UniProt P37802)
